For two molecules, CD122 receptor occupancy on NK cells results are on record in patent US20230322944A1.

This assay deals with cynomolgus monkey CD122 on NK cells (cynomolgus monkey) (UniProt Q38J85). The assay is described as follows: flow cytometry of blood from cynomolgus monkeys after a single IV dose of 1 mg/kg. A general note: A flow cytometer gives signals particle by particle.

Residue numbers refer to the chain shown, from its start.

Chain of cynomolgus monkey CD122 on NK cells (cynomolgus monkey) (Q38J85 27-551 limits assumed): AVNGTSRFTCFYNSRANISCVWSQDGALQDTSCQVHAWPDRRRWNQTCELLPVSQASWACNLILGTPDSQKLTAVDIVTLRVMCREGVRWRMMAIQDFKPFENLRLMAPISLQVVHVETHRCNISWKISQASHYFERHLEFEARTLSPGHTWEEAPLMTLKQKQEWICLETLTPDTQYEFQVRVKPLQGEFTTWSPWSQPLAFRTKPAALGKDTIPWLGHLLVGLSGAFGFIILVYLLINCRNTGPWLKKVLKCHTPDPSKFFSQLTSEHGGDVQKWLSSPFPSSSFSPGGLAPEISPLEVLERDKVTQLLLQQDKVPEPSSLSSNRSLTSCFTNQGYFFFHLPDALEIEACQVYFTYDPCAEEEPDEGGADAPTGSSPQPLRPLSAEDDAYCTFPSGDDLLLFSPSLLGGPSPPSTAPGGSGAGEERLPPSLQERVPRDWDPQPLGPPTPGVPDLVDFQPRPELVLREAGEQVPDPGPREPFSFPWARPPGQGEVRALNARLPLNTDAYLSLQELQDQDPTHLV

B1: MAB05 (antibody, V domains shown)
VH: EVQLLESGGGLVQPGGSLRLSCAASGFTVTSYAVHWVRQAPGKGLEWLGVIWSGGSTDYNAAFISRLTISKDNSKNTVYFQMNSLRAEDTAVYYCARAGDANYDGFAYWGQGTLVTVSS
VL: DIQMTQSPSSLSASVGDRVTITCQASQSVSFLYWYQQRPGKAPRLLIYDTSNLASGVPSRFSGSGSGTSYTFTISSLQPEDIATYYCQQWSTYPLTFGQGTKVEIK
In turn, B1 displayed a CD122 receptor occupancy on NK cells of over 90%.

B2: MAB06 (antibody, V domains shown)
VH: B1 VH
VL: B1 VL with Q27S, L32M
B2 displayed a CD122 receptor occupancy on NK cells of over 90%.
